Measured values reported in patent publication US20230243836A1.

Assays:
[1] = biological target: VISTA (V-Domain Ig Suppressor of T Cell Activation) expressed on human cells (human) (UniProt Q9H7M9); assay: cell-based or functional assay
[2] = biological target: T1, P-selectin glycoprotein ligand 1 (PSGL-1) expressed on human cells (human) (UniProt Q14242); assay: CAPTIREC (TRICEPS) ligand-receptor capture on naive human T cells, LC-MS/MS; enrichment against the anti-CD28 antibody control
T1 sequence: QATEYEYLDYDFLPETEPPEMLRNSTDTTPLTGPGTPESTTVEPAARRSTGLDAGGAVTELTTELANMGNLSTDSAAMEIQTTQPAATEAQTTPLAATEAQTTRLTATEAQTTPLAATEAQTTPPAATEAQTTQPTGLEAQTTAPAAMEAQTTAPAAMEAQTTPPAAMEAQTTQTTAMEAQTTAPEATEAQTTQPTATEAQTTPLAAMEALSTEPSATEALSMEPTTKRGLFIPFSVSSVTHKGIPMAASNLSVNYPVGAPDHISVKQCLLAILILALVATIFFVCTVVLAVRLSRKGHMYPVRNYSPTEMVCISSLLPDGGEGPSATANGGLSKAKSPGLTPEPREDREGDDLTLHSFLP

Sequence of VISTA (V-Domain Ig Suppressor of T Cell Activation) expressed on human cells (human) (Q9H7M9 33-311): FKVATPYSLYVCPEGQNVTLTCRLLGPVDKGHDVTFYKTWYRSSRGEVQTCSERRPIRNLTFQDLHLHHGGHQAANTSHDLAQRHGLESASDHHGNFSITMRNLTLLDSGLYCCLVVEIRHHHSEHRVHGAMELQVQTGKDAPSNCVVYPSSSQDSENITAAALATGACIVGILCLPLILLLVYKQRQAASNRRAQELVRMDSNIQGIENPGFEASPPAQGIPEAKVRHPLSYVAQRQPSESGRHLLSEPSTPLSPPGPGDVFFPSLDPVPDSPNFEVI
Sequence of VISTA-Fc fusion protein (chain): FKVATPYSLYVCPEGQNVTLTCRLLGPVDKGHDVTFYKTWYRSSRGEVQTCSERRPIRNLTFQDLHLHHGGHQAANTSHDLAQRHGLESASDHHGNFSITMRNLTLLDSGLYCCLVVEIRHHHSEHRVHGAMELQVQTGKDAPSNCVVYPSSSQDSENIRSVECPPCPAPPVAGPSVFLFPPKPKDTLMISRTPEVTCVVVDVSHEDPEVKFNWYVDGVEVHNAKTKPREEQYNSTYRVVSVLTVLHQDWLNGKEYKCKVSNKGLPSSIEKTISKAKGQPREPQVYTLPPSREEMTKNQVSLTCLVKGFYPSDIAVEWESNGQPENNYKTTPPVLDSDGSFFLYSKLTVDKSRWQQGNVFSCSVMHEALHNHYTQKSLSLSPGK

| fold decrease in IL-2 release from CD4+ T cells (72 h) [1] [fold] | Log2 FC (log2 fold change) [2] | Substance |
| --- | --- | --- |
| 2 |  | PSGL-1-Fc fusion protein (Example VIII) (from UniProt Q14242 18-320) |
|  | 2.33 | VISTA-Fc fusion protein |
